According to PMC11112747, “Cyanovirin-N Binding to N-Acetyl-D-glucosamine Requires Carbohydrate-Binding Sites on Two Different Protomers” (Biochemistry, 2024):
Positions count from the first letter of the chain named. Names and notes keep the numbering of the source. Values joined by “and” are separate entries in the source; they are usually repeats but may differ in a detail not shown here. Equal entries are not always repeated. Where two headings read alike, the source gives them in different places.

Legend:
CVN2 (CVN2L0) [1] = molecular target: T1, CVN2 (CVN2L0) (Nostoc ellipsosporum, UniProt P81180); experiment: Isothermal titration calorimetry, CVN2 titrated into ManNAc in the cell, PBS pH 7.4, 298 K, one-set of sites model.; type: binding; details: SEM, n = 3; read-out: affinity Kd
T1 construct: tandem-linked domain-swapped dimer of two CV-N, zero-linker length; His-tag
T1 sequence (P81180 1-101): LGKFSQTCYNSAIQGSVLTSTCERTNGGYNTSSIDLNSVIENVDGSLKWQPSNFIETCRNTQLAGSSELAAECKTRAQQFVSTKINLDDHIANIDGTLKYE
Method: Calorimetric titrations were carried out using an ITC200 device (Malvern Panalytical, Malvern, UK). The concentration of mutant E41T dimer and monomeric variants CVN-E41T or CVN-E41A was 200 μM titrant of these proteins to the ligands ManNAc and GlcNAc in the cell. […] The protein concentrations were 44 μM (304 μM) CVN2L0 and 465 μM CVN-E41T in the ManNAc experiments, respectively, and determined to be between 200 and 300 μM for the GlcNAc experiment. Aliquots (2 μL) of CV-N titrant were injected at 2 min intervals into the sugar solution in the calorimetry cell with a total of 19 injections from a stirring syringe (operated at 750 rpm). […] The values for enthalpy, binding affinity, and stoichiometry from the binding curve and the free energy and entropy of interaction were calculated using Microcal Origin v7.0 (OriginLab, Northampton, Massachusetts, USA) according to the standard expressions: ΔG = −RTln Ka, and ΔG = ΔH–TΔS. […]
Specific carbohydrate–protein interactions with polar and charged residues were delineated from the solution structure with Manα1 → 2Man disaccharide bound to domain B.[5] […] A low-affinity binding site was exposed and calculated to bind ManNAc with micromolar concentrations of CV-N and CVN2 (Figure S1A and Figure 1B). […]

mutant E41T dimer [2] = molecular target: T2, mutant E41T dimer (Nostoc ellipsosporum, UniProt P81180, E41T); experiment: Isothermal titration calorimetry, mutant E41T dimer with ManNAc in the cell, PBS pH 7.4, 298 K, calculated with N = 2.; type: binding
T2 construct: His-tag
Method: (§1) Calorimetric titrations were carried out using an ITC200 device (Malvern Panalytical, Malvern, UK). The concentration of mutant E41T dimer and monomeric variants CVN-E41T or CVN-E41A was 200 μM titrant of these proteins to the ligands ManNAc and GlcNAc in the cell. […] The protein concentrations were 44 μM (304 μM) CVN2L0 and 465 μM CVN-E41T in the ManNAc experiments, respectively, and determined to be between 200 and 300 μM for the GlcNAc experiment. Aliquots (2 μL) of CV-N titrant were injected at 2 min intervals into the sugar solution in the calorimetry cell with a total of 19 injections from a stirring syringe (operated at 750 rpm). […] The values for enthalpy, binding affinity, and stoichiometry from the binding curve and the free energy and entropy of interaction were calculated using Microcal Origin v7.0 (OriginLab, Northampton, Massachusetts, USA) according to the standard expressions: ΔG = −RTln Ka, and ΔG = ΔH–TΔS.
In comparison, CV-N binding to GlcNAc, the N-linked glycan unit in N-glycosylation sites that is also part of bacterial cell walls with beta-linked bonds to N-acetylmuramic acid (MurNAc), was rather unspecific and measured in the micromolar range (Figure S1B).
Figure S1. […] Calculated energies of interaction, affinities, and stoichiometry for CV-N binding and […]
model. (F) Mutant E41T dimer binding to ManNAc is calculated based on N=2, ligand in the cell analysis. […]

CVN-E41T = molecular target: T3, CVN-E41T (Nostoc ellipsosporum, UniProt P81180, E41T); experiment: Isothermal titration calorimetry, monomeric CVN-E41T titrated into 6 uM GlcNAc in the cell, PBS pH 7.4, 298 K, one-set of sites model, single biological replicates.; type: binding; details: n = 1; read-out: Affinity Kd
T3 construct: His-tag
Method: as §1
(§2) The lectin interaction with peptide residues was enhanced or reduced by replacing a single, or two, disulfide bond(s) by ionic residue pairs (Glu and Arg) at positions E58 and R73 in CVN2, resulting in binding of dimannosylated peptide (DM) by double-mutant C58E-C73R (CVN2L0-V5) (Figure S2C) with high polar interactions.[12] […] The binding stoichiometry was calculated from a simplex fit. […]

mutant E41T dimer [3] = molecular target: T2, mutant E41T dimer; experiment: Isothermal titration calorimetry, protein titrated into GlcNAc in the cell, PBS pH 7.4, 298 K, one-set of sites model.; type: binding; details: SEM, n = 3; read-out: affinity Kd
Method: (§3) Calorimetric titrations were carried out using an ITC200 device (Malvern Panalytical, Malvern, UK). The concentration of mutant E41T dimer and monomeric variants CVN-E41T or CVN-E41A was 200 μM titrant of these proteins to the ligands ManNAc and GlcNAc in the cell. […] The protein concentrations were 44 μM (304 μM) CVN2L0 and 465 μM CVN-E41T in the ManNAc experiments, respectively, and determined to be between 200 and 300 μM for the GlcNAc experiment. Aliquots (2 μL) of CV-N titrant were injected at 2 min intervals into the sugar solution in the calorimetry cell with a total of 19 injections from a stirring syringe (operated at 750 rpm). Controls were prepared with identical amounts of titrant injected into PBS buffer at pH 7.4 at 298 K, and control values were subtracted from the results of the actual experiments. The values for enthalpy, binding affinity, and stoichiometry from the binding curve and the free energy and entropy of interaction were calculated using Microcal Origin v7.0 (OriginLab, Northampton, Massachusetts, USA) according to the standard expressions: ΔG = −RTln Ka, and ΔG = ΔH–TΔS.
(§4) Figure 2 ITC data showing the binding of CVN2, mutant E41T dimer, and CVN-E41A to GlcNAc. (A) Schematic representation of monomeric CVN-E41A and dimeric CVN2 binding to GlcNAc. (B) Binding affinity of CVN2 to GlcNAc. Thermogram is shown, and the binding curve fitted to the one-set of sites model. (C) Mutant E41T dimer binds to GlcNAc. Thermogram is shown, and binding analyzed based on one-set of sites binding model. T = 298 K. Ligand in cell. […] Thermogram is shown, and binding analyzed based on one-set of sites binding model. […]
as §2

CVN-E41A = molecular target: T4, CVN-E41A (Nostoc ellipsosporum, UniProt P81180, E41A); experiment: as above; type: binding; details: SEM, n = 3; read-out: affinity Kd
T4 construct: monomeric variant; His-tag
Method: as §3, §4, §2

CVN2 (CVN2L0) [4] = molecular target: T1, CVN2 (CVN2L0); experiment: as above; type: binding; details: SEM, n = 3; read-out: affinity Kd
Method: as §3, §4, §2

[5] = STD-NMR interaction with GlcNAc; type: binding; details: protein 100 μM, carbohydrate/CV-N = 10:1, T = 298 K
Method: (§5) NMR experiments were performed using a Bruker 600 MHz spectrometer, and STD spectra were obtained with −0.05 ppm as irradiation frequency and 2.94 s of saturation time. An NMR sample of CV-N, its mutant, and dimer were prepared in 100 mM PBS, pH 7.0, each added to the carbohydrate solutions in phosphate buffer for a final protein concentration of 100 μM and a ratio of carbohydrate/CV-N = 10:1.

[6] = STD-NMR interaction with ManNAc; type: binding; details: protein 100 μM, carbohydrate/CV-N = 10:1, T = 298 K
Method: as §5

[7] = cited from earlier work
[8] = ITC binding of CV-N, CVN2 and variants to ManNAc; details: for Kd: two-sets of sites model
Method: as §3

[9] = ITC binding of CVN2 to dimannosylated peptide (DM); details: one-set of sites model, T=298K, Figure S2D

In the case of `CC(=O)N[C@@H]1C(O)O[C@H](CO)[C@@H](O)[C@@H]1O` (stereo partly drawn) [ManNAc, N-acetylmannosamine], the Kd (CVN2 (CVN2L0) [1]) is reported as 1400 ± 139 nM and the Kd (mutant E41T dimer [2]) is reported as 110000 nM.

With `CC(=O)N[C@H]1C(O)O[C@H](CO)[C@@H](O)[C@@H]1O` (stereo partly drawn) [GlcNAc, N-acetyl-D-glucosamine] the Kd (CVN-E41T) was 728 nM and 397 nM and 418 nM, the Kd (mutant E41T dimer [3]) was 5890 ± 320 nM and the Kd (CVN-E41A) was 2500 ± 2000 nM. The Kd (CVN2 (CVN2L0) [4]) was 852 ± 235 nM.

B1: Cyanovirin-N (protein, UniProt P81180 1-101, looked up)
Cyanovirin-N: T1 sequence (P81180 1-101)
In the case of B1, the “STD-NMR interaction with GlcNAc” value [5] is given as “interaction”, the “STD-NMR interaction with ManNAc” value [6] is given as “hydrogen bonding” and the Kd ([7]; deeper high-affinity binding pocket, read-out: equilibrium Kd) is given as roughly 140 nM. The Kd ([7]; domain A (low-affinity site), read-out: Kd) was 1500 nM.

B2: CVN2: tandem-linked dimeric CVN2 with zero-linker length; tandem repeat of two CV-N molecules (protein, UniProt P81180 1-101, looked up)
Cyanovirin-N: T1 sequence (P81180 1-101)
modifications: tandem repeat dimer, zero linker
notes: tandem-linked dimeric CVN2 with zero-linker length; tandem repeat of two CV-N molecules
In the case of B2, the Kd ([8]; site 2, read-out: KD2) is reported as 2.6 nM, the “STD-NMR interaction with GlcNAc” value [5] is reported as “interaction” and the Kd [9] is reported as 3940 nM.

B3: CVN-E41T: CV-N binding-site variant with single-point mutation E41T, generated by alanine to threonine substitution (protein, UniProt P81180 1-101, looked up, variant E41T)
Cyanovirin-N: T1 sequence (P81180 1-101) with E41T
In the case of B3, the “binding to ManNAc (ITC)” value ([8]; one-set of sites model, Figure S3A) is reported as “no binding”, the Kd ([8]; site 1, read-out: KD1) is reported as 712000 nM and the Kd ([8]; site 2, read-out: KD2) is reported as 17600 nM. For the same molecule, the “STD-NMR interaction with GlcNAc” value [5] was “interaction” and the “STD-NMR interaction with ManNAc” value [6] was “hydrogen bonding”.
